The supplement of paper PMC7125110
± gives the standard error. For some of these results: Fewer inactive variants are shown than the library holds.

B1: glmS ribozyme (parent)
chain: AUAAAAGCGCCAGAACUACAGAAAUGUAGUUGACGAGGAGGAGGUUUAUCGAAUUUUCGGCGGAUGCCUCCAAA

Assays:
Conditions in all cases: with glucosamine-6-phosphate
[1] = variants of: B1; test: kcat; higher = faster cleavage; RNA array
In short: (§1)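 Over ~14 h at 37 °C, tiles were imaged as glucosamine-6-phosphate (40 μM to 10 mM) in HEPES/KCl/Mg(OAc)2 buffer flowed across sequenced MiSeq chips. The chips carried barcoded ribozyme variants transcribed in situ by E. coli RNA polymerase and tracked with a hybridised Cy3 probe. After normalisation to baseline and to non-cleaving reference variants, one- or two-exponential decay fits of per-tile medians gave kobs. kcat and KM followed from weighted Michaelis–Menten fits across concentrations.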

[2] = variants of: B1; test: KM; higher = weaker cofactor use; RNA array
In short: as §1

[3] = variants of: B1; test: self-cleavage kobs at 40 uM GlcN6P; higher = faster cleavage; RNA array
In short: as §1

[4] = variants of: B1; test: self-cleavage kobs at 160 uM GlcN6P; higher = faster cleavage; RNA array
In short: as §1

[5] = variants of: B1; test: self-cleavage kobs at 640 uM GlcN6P; higher = faster cleavage; RNA array
In short: as §1

[6] = variants of: B1; test: self-cleavage kobs at 2500 uM GlcN6P; higher = faster cleavage; RNA array
In short: as §1

[7] = variants of: B1; test: self-cleavage kobs at 10000 uM GlcN6P; higher = faster cleavage; RNA array
In short: as §1

Variant	kcat [1]	KM [2]	self-cleavage kobs at 40 uM GlcN6P [3]	self-cleavage kobs at 160 uM GlcN6P [4]	self-cleavage kobs at 640 uM GlcN6P [5]	self-cleavage kobs at 2500 uM GlcN6P [6]	self-cleavage kobs at 10000 uM GlcN6P [7]
A12G C70U	0.00188 ± 0.00036 s⁻¹	4460 ± 1400 µM	1.71e-05 ± 6.8e-06 s⁻¹	7.66e-05 ± 6.8e-06 s⁻¹	0.00025 ± 2.2e-05 s⁻¹	0.00055 ± 4.3e-05 s⁻¹	0.00139 ± 7.5e-05 s⁻¹
C11G A48G G59C	0.000345 ± 1.4e-05 s⁻¹	1870 ± 150 µM			8.84e-05 ± 2.1e-05 s⁻¹	0.0002 ± 3.7e-05 s⁻¹	0.000286 ± 7.5e-05 s⁻¹
C10U U31G	2.34e-05 ± 1.5e-06 s⁻¹	552 ± 200 µM	< 1e-05 s⁻¹				
C10A G60U	0.000974 ± 0.00015 s⁻¹	1660 ± 470 µM	3.82e-05 ± 7.9e-06 s⁻¹	8.97e-05 ± 1.6e-05 s⁻¹	0.000243 ± 3.1e-05 s⁻¹	0.000514 ± 8.6e-05 s⁻¹	0.000886 ± 8.3e-05 s⁻¹
C10A G60C	< 1e-05 s⁻¹				< 1e-05 s⁻¹		
A12C A14U C16U U46G	3.1e-05 ± 6.8e-06 s⁻¹						
C11A G51U U65C C68U	3.35e-05 ± 9e-06 s⁻¹						
C11A U54C	0.000278 ± 3.7e-05 s⁻¹	4640 ± 1100 µM			3.08e-05 ± 1e-05 s⁻¹	0.00011 ± 2.9e-05 s⁻¹	0.000186 ± 3.4e-05 s⁻¹
C11U A64G	0.00227 ± 0.00061 s⁻¹	1370 ± 580 µM	8.94e-05 ± 9.3e-06 s⁻¹	0.0002 ± 2.5e-05 s⁻¹	0.000741 ± 6.4e-05 s⁻¹	0.00108 ± 0.00014 s⁻¹	0.00247 ± 0.00021 s⁻¹
C11A G32U	5.22e-05 ± 2.5e-05 s⁻¹		< 1e-05 s⁻¹	< 1e-05 s⁻¹			
A12C U31C	0.00286 ± 0.00052 s⁻¹	5110 ± 1300 µM	3.7e-05 ± 1.5e-05 s⁻¹	8.05e-05 ± 1.6e-05 s⁻¹	0.000348 ± 6.1e-05 s⁻¹	0.000876 ± 0.00014 s⁻¹	0.00195 ± 0.0003 s⁻¹
A12C C50A C68G	2.56e-05 ± 8.7e-06 s⁻¹						
C11A A15C C70A	4.15e-05 ± 2.7e-06 s⁻¹						4.27e-05 ± 1.9e-05 s⁻¹
C10U A39G	3.18e-05 ± 4e-06 s⁻¹		< 1e-05 s⁻¹			4.09e-05 ± 2e-05 s⁻¹	2.93e-05 ± 8.6e-06 s⁻¹
C10U A12U	0.000153 ± 2.3e-05 s⁻¹	3200 ± 1200 µM			1.92e-05 ± 6e-06 s⁻¹	8.4e-05 ± 1.2e-05 s⁻¹	0.000113 ± 9e-06 s⁻¹
C11A G37A	< 1e-05 s⁻¹						
C10U A12U C50U	2.27e-05 ± 6.7e-06 s⁻¹						
C10A C67G	8.97e-05 ± 1.7e-05 s⁻¹		2.69e-05 ± 1.1e-05 s⁻¹		8.76e-05 ± 1.4e-05 s⁻¹	7.6e-05 ± 1.7e-05 s⁻¹	
A12C G43A	6.99e-05 ± 1.2e-05 s⁻¹	1870 ± 800 µM				3.76e-05 ± 8.6e-06 s⁻¹	6.33e-05 ± 1.9e-05 s⁻¹
